Series [1] has as its target T1, cynomolgus TREM-1-Fc (cynomolgus monkey).
T1 construct: also called cTREM-1
T1 chain: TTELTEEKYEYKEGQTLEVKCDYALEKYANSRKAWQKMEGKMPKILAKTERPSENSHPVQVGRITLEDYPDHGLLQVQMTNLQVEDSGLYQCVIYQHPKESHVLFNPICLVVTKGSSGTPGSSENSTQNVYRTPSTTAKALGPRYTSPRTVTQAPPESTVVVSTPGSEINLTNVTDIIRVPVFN
Nature of the series: SPR (ProteOn), antibody captured via anti-Fc, TREM-1-Fc as analyte, 1:1 Langmuir fit, 25 C. As to the method:
Binding studies were performed on a ProteOn Analyzer (BioRad) that measures molecular interactions in real time through surface plasmon resonance. Experiments were run at 25° C. and the samples were stored at 15° C. in the sample compartment. The signal (RU, response units) reported by the ProteOn is directly correlated to the mass on the individual sensor chip surfaces in the six parallel flow cells. Anti-human Fc monoclonal or anti-murine Fc polyclonal antibody from Biacore human or mouse Fc capture kits were immobilized in horizontal direction onto flow cells of a GLM sensor chip according to the manufacturer's instructions. The final immobilization level of capture antibody was approximately 2600-6000 RU in each experiment. The capture of purified monoclonal mouse or recombinantly expressed anti-hTREM-1 antibodies was conducted by diluting the antibodies to 5-10 nM into running buffer (10 mM Hepes 0.15 M NaCl, 5 mM EDTA, 0.05% surfactant P20, pH 7.4) followed by injection in vertical direction at 30 μL/min for 60 sec, creating reference interspots adjacent to all flow cells with only anti-Fc antibody immobilized. […] Binding of hTREM-1 or cTREM-1 proteins was conducted by injecting analyte (antigen) over all flow cells in horizontal direction to allow for comparative analyses of binding to different captured anti-TREM-1 antibodies relative to binding to the reference interspot. hTREM-1 or cTREM-1 proteins were diluted serially 1:3 to 1.2-100 nM or into running buffer, injected at 100 μL/min for 250 s and allowed to dissociate for 600 s. The GLM surface was regenerated after each injection cycle of analyte via two 18 s injections of 10 mM Glycine, pH 1.7 and 50 mM NaOH at 100 μL/min. This regeneration step removed the anti-TREM-1 antibody and any bound TREM-1 protein from the immobilized capture antibody surface and allowed for the subsequent binding of the next interaction sample pair.

Series [2] concerns the target T2, cynomolgus TREM-1 on cells (TE426.27 reporter cell line) (cynomolgus monkey).
T2 chain: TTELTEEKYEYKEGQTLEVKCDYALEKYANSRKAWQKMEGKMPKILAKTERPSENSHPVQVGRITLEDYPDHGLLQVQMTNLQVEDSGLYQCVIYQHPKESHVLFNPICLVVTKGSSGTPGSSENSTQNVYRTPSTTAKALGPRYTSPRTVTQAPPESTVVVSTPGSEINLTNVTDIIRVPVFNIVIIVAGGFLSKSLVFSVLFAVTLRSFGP
Nature of the series: cell-based or functional assay.

Series [3] concerns the molecule itself. As to the kind of experiment: X-ray crystal structure of the Fab region of mAb 0170 (self-interaction in the crystal).

B1: mAb 0170 (humanised TREM-1 antibody, mAb 0170 of WO2013/120553) (antibody, V domains shown)
VH: EVQLVESGGGLVQPGGSLKLSCAASGFTFSTYAMHWVRQASGKGLEWVGRIRTKSSNYATYYAASVKGRFTISRDDSKNTAYLQMNSLKTEDTAVYYCTRDMGIRRQFAYWGQGTLVTVSS
VL: DIVLTQSPDSLAVSLGERATINCRASESVDTFDYSFLHWYQQKPGQPPKLLIYRASNLESGVPDRFSGSGSGTDFTLTISSLQAEDVAVYYCQQSNEDPYTFGQGTKLEIKR
notes: also called mAb 170
In series [1], B1 had a Kd of 2 nM. Also, in series [2], the “IC50: inhibition of luminescence of TE426.27 cynomolgus TREM-1 reporter cells stimulated with PGN and recombinant PGLYRP1” value (“IC50: inhibition” for short) turned out to be 6 nM.

B2: Fab region of mAb 0170 (Fab, V domains shown)
VH: EVQLVESGGGLVQPGGSLKLSCAASGFTFSTYAMHWVRQASGKGLEWVGRIRTKSSNYATYYAASVKGRFTISRDDSKNTAYLQMNSLKTEDTAVYYCTRDMGIRRQFAYWGQGTLVTVSS
VL: DIVLTQSPDSLAVSLGERATINCRASESVDTFDYSFLHWYQQKPGQPPKLLIYRASNLESGVPDRFSGSGSGTDFTLTISSLQAEDVAVYYCQQSNEDPYTFGQGTKLEIKR
notes: Crystallised alone; packs as Fab-Fab dimers; also called Fab 0170; mAb 170 Fab region
Take B2: the binding result in series [3] is given as “binds”.

B3: mAb 0317 (mAb 0170 variant, light chain E27Q, E97S) (antibody, human IgG4 S228P, kappa, V domains shown)
VH: EVQLVESGGGLVQPGGSLKLSCAASGFTFSTYAMHWVRQASGKGLEWVGRIRTKSSNYATYYAASVKGRFTISRDDSKNTAYLQMNSLKTEDTAVYYCTRDMGIRRQFAYWGQGTLVTVSS
VL: DIVLTQSPDSLAVSLGERATINCRASQSVDTFDYSFLHWYQQKPGQPPKLLIYRASNLESGVPDRFSGSGSGTDFTLTISSLQAEDVAVYYCQQSNSDPYTFGQGTKLEIKR
notes: Charge patch mutations
For B3, in series [1], the affinity, expressed as Kd, was 3 nM. Moreover, in series [2], the “IC50: inhibition” value was found to be 9.5 nM.

B4: mAb 0324 (mAb 0170 variant, heavy chain A59Y) (antibody, human IgG4 S228P, kappa, V domains shown)
VH: EVQLVESGGGLVQPGGSLKLSCAASGFTFSTYAMHWVRQASGKGLEWVGRIRTKSSNYYTYYAASVKGRFTISRDDSKNTAYLQMNSLKTEDTAVYYCTRDMGIRRQFAYWGQGTLVTVSS
VL: DIVLTQSPDSLAVSLGERATINCRASESVDTFDYSFLHWYQQKPGQPPKLLIYRASNLESGVPDRFSGSGSGTDFTLTISSLQAEDVAVYYCQQSNEDPYTFGQGTKLEIKR
Consider B4, for which the dissociation constant (Kd) in series [1] came out at 4 nM.

B5: mAb 0320 (mAb 0170 variant, light chain E97Q) (antibody, human IgG4 S228P, kappa, V domains shown)
VH: EVQLVESGGGLVQPGGSLKLSCAASGFTFSTYAMHWVRQASGKGLEWVGRIRTKSSNYATYYAASVKGRFTISRDDSKNTAYLQMNSLKTEDTAVYYCTRDMGIRRQFAYWGQGTLVTVSS
VL: DIVLTQSPDSLAVSLGERATINCRASESVDTFDYSFLHWYQQKPGQPPKLLIYRASNLESGVPDRFSGSGSGTDFTLTISSLQAEDVAVYYCQQSNQDPYTFGQGTKLEIKR
notes: Charge patch mutation
With B5, the affinity in series [1], expressed as Kd, was 3 nM.

B6: mAb 0325 (mAb 0170 variant, heavy chain N57S) (antibody, human IgG4 S228P, kappa, V domains shown)
VH: EVQLVESGGGLVQPGGSLKLSCAASGFTFSTYAMHWVRQASGKGLEWVGRIRTKSSSYATYYAASVKGRFTISRDDSKNTAYLQMNSLKTEDTAVYYCTRDMGIRRQFAYWGQGTLVTVSS
VL: DIVLTQSPDSLAVSLGERATINCRASESVDTFDYSFLHWYQQKPGQPPKLLIYRASNLESGVPDRFSGSGSGTDFTLTISSLQAEDVAVYYCQQSNEDPYTFGQGTKLEIKR
In turn, B6 returned a dissociation constant Kd in series [1] of 1 nM.

B7: mAb 0319 (mAb 0170 variant, light chain E97S) (antibody, human IgG4 S228P, kappa, V domains shown)
VH: EVQLVESGGGLVQPGGSLKLSCAASGFTFSTYAMHWVRQASGKGLEWVGRIRTKSSNYATYYAASVKGRFTISRDDSKNTAYLQMNSLKTEDTAVYYCTRDMGIRRQFAYWGQGTLVTVSS
VL: DIVLTQSPDSLAVSLGERATINCRASESVDTFDYSFLHWYQQKPGQPPKLLIYRASNLESGVPDRFSGSGSGTDFTLTISSLQAEDVAVYYCQQSNSDPYTFGQGTKLEIKR
notes: Charge patch mutation
In series [1], B7 registered a dissociation constant (Kd) of 2 nM. The “IC50: inhibition” value in series [2] was 17.7 nM.

B8: mAb 0332 (mAb 0170 variant, heavy chain A59Y, light chain E27Q, E97Q) (antibody, human IgG4 S228P, kappa, V domains shown)
VH: EVQLVESGGGLVQPGGSLKLSCAASGFTFSTYAMHWVRQASGKGLEWVGRIRTKSSNYYTYYAASVKGRFTISRDDSKNTAYLQMNSLKTEDTAVYYCTRDMGIRRQFAYWGQGTLVTVSS
VL: DIVLTQSPDSLAVSLGERATINCRASQSVDTFDYSFLHWYQQKPGQPPKLLIYRASNLESGVPDRFSGSGSGTDFTLTISSLQAEDVAVYYCQQSNQDPYTFGQGTKLEIKR
In series [1], B8 registered a dissociation constant (Kd) of 4 nM.

B9: mAb 0323 (mAb 0170 variant, light chain F32S) (antibody, human IgG4 S228P, kappa, V domains shown)
VH: EVQLVESGGGLVQPGGSLKLSCAASGFTFSTYAMHWVRQASGKGLEWVGRIRTKSSNYATYYAASVKGRFTISRDDSKNTAYLQMNSLKTEDTAVYYCTRDMGIRRQFAYWGQGTLVTVSS
VL: DIVLTQSPDSLAVSLGERATINCRASESVDTSDYSFLHWYQQKPGQPPKLLIYRASNLESGVPDRFSGSGSGTDFTLTISSLQAEDVAVYYCQQSNEDPYTFGQGTKLEIKR
B9: in series [1], the Kd stood at 0.6 nM. Against the preceding molecule, the Kd is about 6.7-fold lower.

B10: mAb 0330 (mAb 0170 variant, light chain F32A, E27Q, E97Q) (antibody, human IgG4 S228P, kappa, V domains shown)
VH: EVQLVESGGGLVQPGGSLKLSCAASGFTFSTYAMHWVRQASGKGLEWVGRIRTKSSNYATYYAASVKGRFTISRDDSKNTAYLQMNSLKTEDTAVYYCTRDMGIRRQFAYWGQGTLVTVSS
VL: DIVLTQSPDSLAVSLGERATINCRASQSVDTADYSFLHWYQQKPGQPPKLLIYRASNLESGVPDRFSGSGSGTDFTLTISSLQAEDVAVYYCQQSNQDPYTFGQGTKLEIKR
In series [1], B10 gave a Kd of 0.1 nM. Also, the “IC50: inhibition” value in series [2] was found to be 10.7 nM.

B11: mAb 0322 (mAb 0170 variant, light chain F32A) (antibody, human IgG4 S228P, kappa, V domains shown)
VH: EVQLVESGGGLVQPGGSLKLSCAASGFTFSTYAMHWVRQASGKGLEWVGRIRTKSSNYATYYAASVKGRFTISRDDSKNTAYLQMNSLKTEDTAVYYCTRDMGIRRQFAYWGQGTLVTVSS
VL: DIVLTQSPDSLAVSLGERATINCRASESVDTADYSFLHWYQQKPGQPPKLLIYRASNLESGVPDRFSGSGSGTDFTLTISSLQAEDVAVYYCQQSNEDPYTFGQGTKLEIKR
Take B11: in series [1], the dissociation constant Kd came to 0.1 nM. Further, the “IC50: inhibition” value in series [2] is 5.9 nM.

B12: mAb 0321 (mAb 0170 variant, light chain E27Q) (antibody, human IgG4 S228P, kappa, V domains shown)
VH: EVQLVESGGGLVQPGGSLKLSCAASGFTFSTYAMHWVRQASGKGLEWVGRIRTKSSNYATYYAASVKGRFTISRDDSKNTAYLQMNSLKTEDTAVYYCTRDMGIRRQFAYWGQGTLVTVSS
VL: DIVLTQSPDSLAVSLGERATINCRASQSVDTFDYSFLHWYQQKPGQPPKLLIYRASNLESGVPDRFSGSGSGTDFTLTISSLQAEDVAVYYCQQSNEDPYTFGQGTKLEIKR
notes: Charge patch mutation
For the molecule B12, the Kd in series [1] turned out to be 2 nM.

B13: mAb 0333 (mAb 0170 variant, heavy chain A59Y, light chain F32A, E27Q, E97Q) (antibody, human IgG4 S228P, kappa, V domains shown)
VH: EVQLVESGGGLVQPGGSLKLSCAASGFTFSTYAMHWVRQASGKGLEWVGRIRTKSSNYYTYYAASVKGRFTISRDDSKNTAYLQMNSLKTEDTAVYYCTRDMGIRRQFAYWGQGTLVTVSS
VL: DIVLTQSPDSLAVSLGERATINCRASQSVDTADYSFLHWYQQKPGQPPKLLIYRASNLESGVPDRFSGSGSGTDFTLTISSLQAEDVAVYYCQQSNQDPYTFGQGTKLEIKR
Take B13: in series [1], the affinity, expressed as Kd, was 0.3 nM. Compared with the last molecule, the Kd is about 6.7-fold lower.

B14: mAb 0318 (mAb 0170 variant, light chain E27Q, E97Q) (antibody, human IgG4 S228P, kappa, V domains shown)
VH: EVQLVESGGGLVQPGGSLKLSCAASGFTFSTYAMHWVRQASGKGLEWVGRIRTKSSNYATYYAASVKGRFTISRDDSKNTAYLQMNSLKTEDTAVYYCTRDMGIRRQFAYWGQGTLVTVSS
VL: DIVLTQSPDSLAVSLGERATINCRASQSVDTFDYSFLHWYQQKPGQPPKLLIYRASNLESGVPDRFSGSGSGTDFTLTISSLQAEDVAVYYCQQSNQDPYTFGQGTKLEIKR
notes: Charge patch mutations
In series [1], B14 showed a Kd of 2 nM. Further, the “IC50: inhibition” value in series [2] came to 5.6 nM.

Values taken from patent US20190185560A1 (Novo Nordisk, published 2019).
